Experimental data from patent US20220387557A1 (OXFORD UNIVERSITY INNOVATION, published 2022).

B1: phage displaying mTNF (gene III fusion, pANT65) (other, mouse, UniProt P06804 80-235, looked up)
chain: LRSSSQNSSDKPVAHVVANHQVEEQLEWLSQRANALLANGMDLKDNQLVVPADGLYLVYSQVLFKGQGCPDYVLLTHTVSRFAISYQEKVNLLSAVKSPCPKDTPEGAELKPWYEPIYLGGVFQLEKGDQLSAEVNLPKYLDFAESGQVYFGVIAL
notes: also called mTNF (phage); not shown: FLAG tag, His6 tag and phage gene III protein of pANT65
B2: TNF mutein C8 (ligand)
chain: VRSSSRTPSDKPVAHVVANPQAEGQLQWLNRRANALLANGVELRDNQLVVPSEGLYLIYSQVLFKGQGCPSTHVLLTHTISRISQTHDGKVNLLSAIKSPCQRETPEGAEAKPWYEPIYLGGVFQLEKGDRLSAEINRPDYLDFAESGQVYFGIIAL
notes: Human TNF mutein, SQTHDG at positions 84-89; not shown: C-terminal FLAG tag and His6 tag from vector pANT65
B3: TNF mutein G4 (ligand)
chain: VRSSSRTPSDKPVAHVVANPQAEGQLQWLNRRANALLANGVELRDNQLVVPSEGLYLIYSQVLFKGQGCPSTHVLLTHTISRISSTYNPKVNLLSAIKSPCQRETPEGAEAKPWYEPIYLGGVFQLEKGDRLSAEINRPDYLDFAESGQVYFGIIAL
notes: Human TNF mutein, SSTYNP at positions 84-89; also called mutTNF G4; mutTNF; not shown: C-terminal FLAG tag and His6 tag from vector pANT65
B4: TNF variant C9 (ligand)
chain: VRSSSRTPSDKPVAHVVANPQAEGQLQWINGRANALLANGVELRDNQLVVPSEGLYLIYSQVLFKGQGCPSTHVLLTHTISRIAVTYQTKVNLLSAIKSPCQRETPEGAEAKPWYEPIYLGGVFQLEKGDRLSAEINRPDYLDDADSGQVYFGIIAL
notes: Human TNF variant from Library 2, AVTYQT at positions 84-89; not shown: C-terminal FLAG tag and His6 tag from vector pANT65

Legend:
[1] = target: T1, Fc tagged mouse TNFR2 (Sino Biological) (mouse, UniProt P25119 23-258); test: phage binding test on Fc tagged receptor
T1 construct: Bought reagent; also called mTNFR2; mTNF2; not shown: Fc tag of the bought protein
T1 sequence (looked up): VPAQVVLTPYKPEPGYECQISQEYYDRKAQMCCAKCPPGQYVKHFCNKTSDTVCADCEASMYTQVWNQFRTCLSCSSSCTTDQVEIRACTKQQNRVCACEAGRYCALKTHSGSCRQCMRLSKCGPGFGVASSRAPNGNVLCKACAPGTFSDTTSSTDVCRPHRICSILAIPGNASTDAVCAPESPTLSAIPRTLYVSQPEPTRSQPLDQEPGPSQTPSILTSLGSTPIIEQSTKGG

[2] = target: T2, Fc tagged human TNFR2 (Sino Biological) (human, UniProt P20333 23-257); test: phage binding test on Fc tagged receptor
T2 construct: Bought reagent; also called hTNFR2; hTNFR2-Fc; not shown: Fc tag of the bought protein
T2 sequence (looked up): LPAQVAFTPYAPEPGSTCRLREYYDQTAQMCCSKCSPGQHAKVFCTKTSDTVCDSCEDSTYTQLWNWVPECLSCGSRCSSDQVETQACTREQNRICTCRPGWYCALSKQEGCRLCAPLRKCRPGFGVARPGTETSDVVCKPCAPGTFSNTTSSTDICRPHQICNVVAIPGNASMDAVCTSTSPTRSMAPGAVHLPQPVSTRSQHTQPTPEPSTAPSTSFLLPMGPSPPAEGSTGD

[3] = target: T2, Fc tagged human TNFR2 (Sino Biological); test: SPR, Biacore T200 multi cycle kinetics, 1:1 model; ** = a residual amount of binding is observed but 1 to 1 model is a poor fit
Description: (§1) Multi cycle kinetics analysis of binding to hTNFR1, hTNFR2, mTNFR1 and mTNFR2 was performed on the 10 lead variants using a Biacore T200 (serial no. 1909913) instrument running Biacore T200 Evaluation Software V3.0.1 (Uppsala, Sweden) to characterise further the binding to these receptors.
As with the single cycle kinetics, receptor binding was assessed in two separate experiments. In the first set of experiments binding to hTNFR1 (Fc2), hTNFR2 (Fc3) and mTNFR1 (Fc4) was assessed. In the second set of experiments the extent of mTNF2 (Fc4) binding was assessed using hTNFR1 (Fc2) and hTNFR2 (Fc3) as controls. All receptors were diluted in running buffer to a concentration of ˜4 μg/mL and at the start of each cycle loaded onto Fc2, Fc3 and Fc4 of a Protein A CM5 chip and captured at a flow rate of 10 μL/min to give an RU of ˜40-100. The surface was then allowed to stabilise. All kinetic data was obtained using a flow rate of 75 μl/min to minimise any potential mass transfer effects. […] The association phase of TNF was monitored for 280 seconds and the dissociation phase was measured for 2100 seconds. […] Regeneration of the Protein A surface was conducted using two injections of 10 mM glycine-HCL pH 1.5 at the end of each cycle. […]

[4] = target: T3, Fc tagged mouse TNFR1 (Sino Biological) (mouse, UniProt P25118 22-212, limits assumed); test: SPR, Biacore T200 single cycle kinetics, receptor-Fc captured on Protein A chip, TNF 1.67-15 nM
T3 construct: Bought reagent; also called mTNFR1; mTNFR1-Fc; not shown: Fc tag of the bought protein
T3 sequence (looked up): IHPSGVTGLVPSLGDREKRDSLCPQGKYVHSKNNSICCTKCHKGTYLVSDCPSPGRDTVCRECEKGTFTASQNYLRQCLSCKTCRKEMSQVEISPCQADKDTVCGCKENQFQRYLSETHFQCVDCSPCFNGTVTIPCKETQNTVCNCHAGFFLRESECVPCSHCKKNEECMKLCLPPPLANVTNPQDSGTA
Description: (§2) Single cycle kinetic analysis was performed using a Biacore T200 (serial no. 1909913) running Biacore T200 Evaluation Software V2.0.1 (Uppsala, Sweden). All experiments were run at 25° C. with HBS-P+ running buffer (pH 7.4) (GE Healthcare, Little Chalfont, UK).
(§3) Due to the limit in the number of available flow cells for analysis (three Fc per analysis, Fc2, Fc3 and Fc4, with Fc1 always being used as blank reference for non-specific subtraction), receptor binding was assessed in two separate overlapping runs using either: hTNFR1 (Fc2), hTNFR2 (Fc3) and mTNFR1 (Fc4), or; hTNFR1 (Fc2), […] and mTNFR2 (Fc4). Receptors were diluted in running buffer to a concentration of ˜4 μg/mL and at the start of each cycle loaded onto Fc2, Fc3 and Fc4 of a Protein A chip (GE Healthcare, Little Chalfont, UK) at a flow rate of 10 μL/min to give an RU of 40-100. The surface was then allowed to stabilise. Single cycle kinetic data was obtained at a flow rate of 45 μL/min. […] The association phase for the three injections of increasing concentrations of TNF was monitored for 240 seconds and a single dissociation phase was measured for 2700 seconds following the last injection of TNF. Regeneration of the Protein A surface was conducted using 10 mM glycine-HCl pH 1.5. The signal from the reference channel Fc1 (no receptor) was subtracted from that of Fc2, Fc3 and Fc4 to correct for differences in non-specific binding to a reference surface.

[5] = target: T4, Fc tagged human TNFR1 (Sino Biological) (human, UniProt P19438 22-211, limits assumed); test: as above
T4 construct: Bought reagent; also called hTNFR1; hTNFR1-Fc; not shown: Fc tag of the bought protein
T4 sequence (looked up): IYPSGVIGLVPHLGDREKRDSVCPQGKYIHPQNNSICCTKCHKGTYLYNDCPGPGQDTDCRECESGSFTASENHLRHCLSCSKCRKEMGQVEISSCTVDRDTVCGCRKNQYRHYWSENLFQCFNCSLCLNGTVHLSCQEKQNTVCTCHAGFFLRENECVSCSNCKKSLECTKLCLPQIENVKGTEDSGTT
Description: as §2, §3

[6] = target: T1, Fc tagged mouse TNFR2 (Sino Biological); test: SPR (Biacore T200) single cycle kinetics, Fc-tagged receptor captured on Protein A chip, TNF protein as analyte at 1.67-15 nM
Description: as §2, §3
(§4) Controls were used to ensure the integrity of the receptors during the Biacore run.

[7] = target: T3, Fc tagged mouse TNFR1 (Sino Biological); test: SPR, Biacore T200 multi cycle kinetics, receptor-Fc captured on Protein A chip, TNF 1.25-40 nM, 1:1 model
Description: as §1
(§5) As with the single cycle kinetics, receptor binding was assessed in two separate experiments. In the first set of experiments binding to hTNFR1 (Fc2), hTNFR2 (Fc3) and mTNFR1 (Fc4) was assessed. In the second set of experiments the extent of mTNF2 (Fc4) binding was assessed using hTNFR1 (Fc2) and hTNFR2 (Fc3) as controls. All receptors were diluted in running buffer to a concentration of ˜4 μg/mL and at the start of each cycle loaded onto Fc2, Fc3 and Fc4 of a Protein A CM5 chip and captured at a flow rate of 10 μL/min to give an RU of ˜40-100. The surface was then allowed to stabilise. All kinetic data was obtained using a flow rate of 75 μl/min to minimise any potential mass transfer effects. […] The association phase of TNF was monitored for 280 seconds and the dissociation phase was measured for 2100 seconds. […] Regeneration of the Protein A surface was conducted using two injections of 10 mM glycine-HCL pH 1.5 at the end of each cycle. The signal from the reference channel Fc1 was subtracted from that of Fc2, Fc3 and Fc4 to correct for differences in non-specific binding to a reference surface, and a global Rmax parameter was used in the 1-to-1 binding model.

[8] = target: T4, Fc tagged human TNFR1 (Sino Biological); test: as above
Description: as §1, §5

[9] = target: T3, Fc tagged mouse TNFR1 (Sino Biological); test: SPR, Biacore single cycle kinetics, stability study, before freezing (t=0)
Description: as §3
(§6) At day zero (prior to freezing) and following thawing on ice after 3 months and 1 year the following assays were performed: [0341] SDS-PAGE [0342] OD280 nm [0343] Single cycle Biacore for binding to hTNFR1, hTNFR2 and mTNFR1

[10] = target: T4, Fc tagged human TNFR1 (Sino Biological); test: as above
Description: as §3, §6

[11] = target: T3, Fc tagged mouse TNFR1 (Sino Biological); test: SPR, Biacore single cycle kinetics, stability study, after 1 year at -20° C.
Description: as §3, §6

[12] = target: T4, Fc tagged human TNFR1 (Sino Biological); test: as above
Description: as §3, §6

[13] = target: T3, Fc tagged mouse TNFR1 (Sino Biological); test: SPR, Biacore single cycle kinetics, stability study, after 1 year at -80° C.
Description: as §3, §6

[14] = target: T4, Fc tagged human TNFR1 (Sino Biological); test: as above
Description: as §3, §6

[15] = target: T2, Fc tagged human TNFR2 (Sino Biological); test: SPR (Biacore T200) single cycle kinetics, Fc-tagged receptor captured on Protein A chip, TNF protein as analyte at 1.67-15 nM
Description: as §2, §3, §4

| Binder | binding result [1] | binding result [2] | Kd [3] [nM] | Kd [4] [nM] | Kd [5] [nM] | binding result [6] | Kd [7] [nM] | Kd [8] [nM] | Kd [9] [nM] | Kd [10] [nM] | Kd [11] [nM] | Kd [12] [nM] | Kd [13] [nM] | Kd [14] [nM] | binding result [15] |
| --- | --- | --- | --- | --- | --- | --- | --- | --- | --- | --- | --- | --- | --- | --- | --- |
| B1 | binds | binds |  |  |  |  |  |  |  |  |  |  |  |  |  |
| B2 |  |  | 4.13 | 0.363 | 0.188 | no binding (tested: 15 nM) | 0.112 | 0.261 |  |  |  |  |  |  |  |
| B3 |  |  |  | 0.0407 | 0.0171 | no binding (tested: 15 nM) | 0.14 | 0.00872 | 0.07 | 0.0173 | 0.0692 | 0.0331 | 0.0458 | 0.0399 | no binding (tested: 15 nM) |
| B4 |  |  | 289 | 0.607 | 0.0248 | no binding (tested: 15 nM) | 1.13 | 0.0717 |  |  |  |  |  |  |  |
